# From patent US20260351346 (published 2026)
# Numbering of substitutions follows the chain as printed.
# B1: 4C2-Candi4 (antibody, V domains shown)
# VH: EVQLEESGGGVVQPGGSLKLSCTVSGFSLGTFPIGWVRQAPGKGLEWVGIFNTDGSAAYAASVKGRFTVSKNSTKNTVYLHMNSLKTEDTAVYFCARINADYSGWYFGIWGQGTLVTVSS
# VL: DIQMTQSPSSLSVSVGGRVTITCQASQSIYSYLAWYQQKPGKAPKLLIYEASKTPSGVPSRFNGNGSGTEYTLTISSLQPEDSATYYCQKGYSVSNVAFGGGTEVEIK
# B2: 4C2-Candi2 (antibody, V domains shown)
# VH: B1 VH with V11L, G16M, K19R, T68N
# VL: B1 VL with D1A, I2Q
# B3: 4C2-Candi3 (antibody, V domains shown)
# VH: B1 VH with V11L, K19A, K71R, N72D, T74S
# VL: B1 VL with V13A, E70D, Y71F
# B4: 4C2-WTH (antibody, V domains shown)
# VH: QSVEESGGRLVTPGTPLTLTCTVSGFSLGTFPIGWVRQAPGSGLEWIGIFNTDGSAAYASWARGRFTVFKNSTTVDLKMTSPTTEDTATYFCARINADYSGWYFGIWGPGTLVTVSS
# VL: EMTQTPASVEVAVGGTVTIKCQASQSIYSYLAWYQQKPGQPPKPLIYEASKTPSGVPSRFKGSGSGTEYTLTISGVQCEDAATYYCQKGYSVSNVAFGGGTEVVVK
# Molecular target: TNFRSF9 (CD137) (human)
# Sequence (chain, as listed by the source): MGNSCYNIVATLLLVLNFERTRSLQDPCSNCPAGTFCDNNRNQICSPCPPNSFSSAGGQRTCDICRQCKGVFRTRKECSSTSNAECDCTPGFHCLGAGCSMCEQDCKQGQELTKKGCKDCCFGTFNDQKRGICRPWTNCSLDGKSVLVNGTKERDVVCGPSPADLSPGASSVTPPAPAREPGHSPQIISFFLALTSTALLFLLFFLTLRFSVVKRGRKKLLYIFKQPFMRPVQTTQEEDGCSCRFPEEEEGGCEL
# Assay: ELISA
row,EC50,Binder
1,2.46 ng/mL,B1
2,2.38 ng/mL,B2
3,100 ng/mL,B3
4,3.8 ng/mL,B4
